Experimental data from paper PMC12511567, “UBE2J2 sensitizes the ERAD ubiquitination cascade to changes in membrane lipid saturation” (Nature Communications, 2025).

Legend:
[1] = target: the molecule itself; test: FRET or BRET; donor UBE2J2_(A488) and acceptor UBE2J2_(A594) co-reconstituted in liposomes with 10% or 60% SFAs (P/L = 1:20,000 and 1:5000); 37 °C; 20 mM HEPES/KOH pH 7.4, 150 mM KCl, 5 mM magnesium acetate, 0.1 mM TCEP, 0.2 mg/mL BSA; excitation 480 nm, I614/I516
[2] = target: ubiquitin-activating enzyme E1 (yeast Uba1) (yeast, UniProt P22515 1-1024); test: cross-linking; UBE2J2 proteoliposomes (10% or 60% SFAs, P/L = 1:32,000) incubated with E1 ± BMOE; with or without pre-incubation with low OG; SDS-PAGE and fluorescence scanning; settings: both partners purified
Sequence of ubiquitin-activating enzyme E1 (yeast Uba1) (P22515 whole entry): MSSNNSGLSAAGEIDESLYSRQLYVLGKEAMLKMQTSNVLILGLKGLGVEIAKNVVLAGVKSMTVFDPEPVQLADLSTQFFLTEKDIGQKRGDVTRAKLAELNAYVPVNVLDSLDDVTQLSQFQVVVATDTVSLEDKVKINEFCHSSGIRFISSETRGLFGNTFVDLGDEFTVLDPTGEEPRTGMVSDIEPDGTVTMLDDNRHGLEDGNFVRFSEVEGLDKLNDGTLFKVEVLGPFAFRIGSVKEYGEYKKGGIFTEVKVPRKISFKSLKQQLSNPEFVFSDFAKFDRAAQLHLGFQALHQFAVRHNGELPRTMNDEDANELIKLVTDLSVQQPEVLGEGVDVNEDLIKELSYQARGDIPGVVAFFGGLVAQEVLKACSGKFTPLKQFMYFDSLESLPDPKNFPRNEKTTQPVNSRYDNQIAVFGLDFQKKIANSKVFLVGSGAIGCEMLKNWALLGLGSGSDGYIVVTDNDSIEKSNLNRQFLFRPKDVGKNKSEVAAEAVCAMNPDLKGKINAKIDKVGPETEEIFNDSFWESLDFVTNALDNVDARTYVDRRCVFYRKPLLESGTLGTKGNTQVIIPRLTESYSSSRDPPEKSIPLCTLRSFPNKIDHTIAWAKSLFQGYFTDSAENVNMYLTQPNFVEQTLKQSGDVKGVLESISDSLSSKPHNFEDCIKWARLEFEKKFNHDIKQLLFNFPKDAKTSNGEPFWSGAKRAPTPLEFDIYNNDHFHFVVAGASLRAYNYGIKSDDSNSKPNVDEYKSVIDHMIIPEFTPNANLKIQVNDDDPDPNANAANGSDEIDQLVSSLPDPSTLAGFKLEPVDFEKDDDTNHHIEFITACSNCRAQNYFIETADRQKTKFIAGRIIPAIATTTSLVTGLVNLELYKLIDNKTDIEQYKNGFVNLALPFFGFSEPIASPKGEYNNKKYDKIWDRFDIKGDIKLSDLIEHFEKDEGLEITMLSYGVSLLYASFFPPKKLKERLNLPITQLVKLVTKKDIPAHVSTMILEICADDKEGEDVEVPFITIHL

binding result [2]	Binder	binding result [1]
binds	UBE2J2 (full-length, membrane-anchored, fluorescently labeled, reconstituted in liposomes) (enzyme, human, UniProt Q8N2K1 1-259, looked up, fluorescent label at the C-terminus by sortase A (fluorophore-conjugated GGC peptide): DL680; Alexa Fluor 488 or Alexa Fluor 594 in the FRET assay, UBE2J2, human, ubiquitin-conjugating enzyme E2 J2 with C-terminal transmembrane segment; The same construct carries different C-terminal dyes in different experiments; also called UBE2J2_(DL680); UBE2J2_(A488)) MSSTSSKRAPTTATQRLKQDYLRIKKDPVPYICAEPLPSNILEWHYVVRGPEMTPYEGGYYHGKLIFPREFPFKPPSIYMITPNGRFKCNTRLCLSITDFHPDTWNPAWSVSTILTGLLSFMVEKGPTLGSIETSDFTKRQLAVQSLAFNLKDKVFCELFPEVVEEIKQKQKAQDELSSRPQTLPLPDVVPDGETHLVQNGIQLLNGHAPGAVPNLAGLQQANRHHGLLGGALANLFVIVGFAAFAYTVKYVLRSIAQE	binds
binds	UBE2J2^F137E (membrane-anchored, reconstituted in liposomes) (enzyme, human, UniProt Q8N2K1 1-259, looked up, fluorescently labeled (UBE2J2 variants were fluorescently labeled after affinity purification), UBE2J2, human, with F137E; also called UBE2J2 F137E mutant) MSSTSSKRAPTTATQRLKQDYLRIKKDPVPYICAEPLPSNILEWHYVVRGPEMTPYEGGYYHGKLIFPREFPFKPPSIYMITPNGRFKCNTRLCLSITDFHPDTWNPAWSVSTILTGLLSFMVEKGPTLGSIETSDETKRQLAVQSLAFNLKDKVFCELFPEVVEEIKQKQKAQDELSSRPQTLPLPDVVPDGETHLVQNGIQLLNGHAPGAVPNLAGLQQANRHHGLLGGALANLFVIVGFAAFAYTVKYVLRSIAQE	–
